Residue numbers refer to the chain shown, from its start. Numbers in names are those of the source.
B1: A102T (designed binder)
chain: MTLQELLREEALRRAEAEAFRYALELLAEKFPEQKEYLLDLAEEIESQIRSLSGVDVEDVRKFLDKEWAWVKELLAEHPAELAEVEAARAARLAELRAEVETKVAA
B2: A23M (designed binder)
chain: B1 chain with A23M, T102A
B3: A17R (designed binder)
chain: B1 chain with A17R, T102A
B4: K62Y (designed binder)
chain: B1 chain with K62Y, T102A
B5: R61Y (designed binder)
chain: B1 chain with R61Y, T102A
B6: L93H (designed binder)
chain: B1 chain with L93H, T102A
B7: A76K (designed binder)
chain: B1 chain with A76K, T102A
B8: L3P (designed binder)
chain: B1 chain with L3P, T102A
B9: E43K (designed binder)
chain: B1 chain with E43K, T102A
B10: V71Q (designed binder)
chain: B1 chain with V71Q, T102A
B11: S47I (designed binder)
chain: B1 chain with S47I, T102A
B12: L24Q (designed binder)
chain: B1 chain with L24Q, T102A
B13: E81Q (designed binder)
chain: B1 chain with E81Q, T102A
B14: K62V (designed binder)
chain: B1 chain with K62V, T102A
B15: E84R (designed binder)
chain: B1 chain with E84R, T102A
B16: R61G (designed binder)
chain: B1 chain with R61G, T102A
B17: E101D (designed binder)
chain: B1 chain with E101D, T102A
B18: R14S (designed binder)
chain: B1 chain with R14S, T102A
B19: Q48Y (designed binder)
chain: B1 chain with Q48Y, T102A
B20: R89K (designed binder)
chain: B1 chain with R89K, T102A
B21: D56C (designed binder)
chain: B1 chain with D56C, T102A
B22: A11F (designed binder)
chain: B1 chain with A11F, T102A
B23: Y37R (designed binder)
chain: B1 chain with Y37R, T102A
B24: L6Y (designed binder)
chain: B1 chain with L6Y, T102A
B25: L93T (designed binder)
chain: B1 chain with L93T, T102A
B26: E99C (designed binder)
chain: B1 chain with E99C, T102A
B27: E36D (designed binder)
chain: B1 chain with E36D, T102A
B28: D56W (designed binder)
chain: B1 chain with D56W, T102A
B29: L39D (designed binder)
chain: B1 chain with L39D, T102A
B30: K62Q (designed binder)
chain: B1 chain with K62Q, T102A
B31: P79Y (designed binder)
chain: B1 chain with P79Y, T102A
B32: W68D (designed binder)
chain: B1 chain with W68D, T102A
B33: A19M (designed binder)
chain: B1 chain with A19M, T102A
B34: F20C (designed binder)
chain: B1 chain with F20C, T102A
B35: K62E (designed binder)
chain: B1 chain with K62E, T102A
B36: E99K (designed binder)
chain: B1 chain with E99K, T102A
B37: E10I (designed binder)
chain: B1 chain with E10I, T102A
B38: V60N (designed binder)
chain: B1 chain with V60N, T102A
B39: E25N (designed binder)
chain: B1 chain with E25N, T102A
B40: I45H (designed binder)
chain: B1 chain with I45H, T102A

Target: T1, TNFR1 (Homo sapiens, UniProt P19438)
T1 chain: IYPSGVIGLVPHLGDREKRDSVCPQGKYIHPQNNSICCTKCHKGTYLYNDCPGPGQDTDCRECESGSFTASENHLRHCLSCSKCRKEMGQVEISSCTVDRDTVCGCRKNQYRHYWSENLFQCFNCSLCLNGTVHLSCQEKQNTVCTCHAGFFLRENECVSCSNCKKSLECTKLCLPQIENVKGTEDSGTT
Assay: yeast display SC50

Point of comparison: B28, “apparent Kd (screen)” value 1.69 nM. Against it:
- B1 — 2.1-fold lower, 0.79 nM
- B2 — 3.1-fold lower, 0.539 nM
- B3 — 3.1-fold lower, 0.539 nM
- B4 — 3.8-fold lower, 0.446 nM
- B5 — 6.2-fold higher, 10.4 nM
- B6 — 3.8-fold lower, 0.446 nM
- B7 — 2.4-fold lower, 0.718 nM
- B8 — 1.6-fold higher, 2.73 nM
- B9 — 2.1-fold lower, 0.79 nM
- B10 — 1.9-fold lower, 0.869 nM
- B11 — 1.8-fold lower, 0.956 nM
- B12 — 2.1-fold lower, 0.79 nM
- B13 — 3.4-fold lower, 0.49 nM
- B14 — 3.4-fold lower, 0.49 nM
- B15 — 2.1-fold lower, 0.79 nM
- B16 — within 1.5-fold, 2.25 nM
- B17 — 3.4-fold lower, 0.49 nM
- B18 — 3.4-fold lower, 0.49 nM
- B19 — 6.7-fold higher, 11.4 nM
- B20 — 3.1-fold lower, 0.539 nM
- B21 — 1.8-fold lower, 0.956 nM
- B22 — 2.4-fold lower, 0.718 nM
- B23 — 2.9-fold higher, 4.83 nM
- B24 — 3.1-fold higher, 5.31 nM
- B25 — 2.6-fold lower, 0.653 nM
- B26 — 2.6-fold lower, 0.653 nM
- B27 — 3.4-fold lower, 0.49 nM
- B29 — 5.1-fold higher, 8.56 nM
- B30 — 3.1-fold lower, 0.539 nM
- B31 — 1.9-fold lower, 0.869 nM
- B32 — 7.4-fold higher, 12.5 nM
- B33 — 3.1-fold lower, 0.539 nM
- B34 — the same, 1.69 nM
- B35 — 2.1-fold lower, 0.79 nM
- B36 — 3.1-fold lower, 0.539 nM
- B37 — within 1.5-fold, 1.16 nM
- B38 — 1.8-fold lower, 0.956 nM
- B39 — 1.9-fold lower, 0.869 nM
- B40 — 1.8-fold lower, 0.956 nM
